Assay results taken from PMC4276739 (2015).

T1: ALK3 (BMPRIa) ECD (Homo sapiens, UniProt P36894)
T1 chain: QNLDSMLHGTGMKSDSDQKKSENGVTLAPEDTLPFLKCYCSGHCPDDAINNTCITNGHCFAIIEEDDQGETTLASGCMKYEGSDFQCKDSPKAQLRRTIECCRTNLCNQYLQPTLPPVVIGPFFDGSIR

B1: BMP2 (protein)
chain: QAKHKQRKRLKSSCKRHPLYVDFSDVGWNDWIVAPPGYHAFYCHGECPFPLADHLNSTNHAIVQTLVNSVNSKIPKACCVPTELSAISMLYLDENEKVVLKNYQDMVVEGCGCR

Legend:
[1] = molecular target: ActRII ECD (Homo sapiens) (UniProt P27037); settings: cited from earlier work
[2] = molecular target: T1, ALK3 (BMPRIa) ECD; assay: SPR

Chain of ActRII ECD (Homo sapiens) (P27037 20-135): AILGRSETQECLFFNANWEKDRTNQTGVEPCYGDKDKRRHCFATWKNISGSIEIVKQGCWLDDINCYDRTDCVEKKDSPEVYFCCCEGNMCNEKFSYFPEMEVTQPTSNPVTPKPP

Molecule | Kd [1] [nM] | Kd [2] [nM]
Activin A (from UniProt P08476) | 0.2 | –
B1 | – | 5
